From patent US20080193444A1
Blank lines part the entries; values can stand above or below the molecule they belong to.

How the values were obtained:
Assay in all cases: cell-based or functional assay
[1] = target: αv integrin subunit (rat hippocampus) (rat)
β1 integrin (human) = β1 integrin (human) (UniProt P05556)
α2 integrin (human) = α2 integrin (human) (UniProt P17301)
α6 integrin (human) = α6 integrin (human) (UniProt P23229)
α2β1 integrin (human) = α2β1 integrin (human) (UniProt P17301)
α5 integrin (human) = α5 integrin (human) (UniProt P08648)
Chain of UniProt P08648 (P08648 42-1049): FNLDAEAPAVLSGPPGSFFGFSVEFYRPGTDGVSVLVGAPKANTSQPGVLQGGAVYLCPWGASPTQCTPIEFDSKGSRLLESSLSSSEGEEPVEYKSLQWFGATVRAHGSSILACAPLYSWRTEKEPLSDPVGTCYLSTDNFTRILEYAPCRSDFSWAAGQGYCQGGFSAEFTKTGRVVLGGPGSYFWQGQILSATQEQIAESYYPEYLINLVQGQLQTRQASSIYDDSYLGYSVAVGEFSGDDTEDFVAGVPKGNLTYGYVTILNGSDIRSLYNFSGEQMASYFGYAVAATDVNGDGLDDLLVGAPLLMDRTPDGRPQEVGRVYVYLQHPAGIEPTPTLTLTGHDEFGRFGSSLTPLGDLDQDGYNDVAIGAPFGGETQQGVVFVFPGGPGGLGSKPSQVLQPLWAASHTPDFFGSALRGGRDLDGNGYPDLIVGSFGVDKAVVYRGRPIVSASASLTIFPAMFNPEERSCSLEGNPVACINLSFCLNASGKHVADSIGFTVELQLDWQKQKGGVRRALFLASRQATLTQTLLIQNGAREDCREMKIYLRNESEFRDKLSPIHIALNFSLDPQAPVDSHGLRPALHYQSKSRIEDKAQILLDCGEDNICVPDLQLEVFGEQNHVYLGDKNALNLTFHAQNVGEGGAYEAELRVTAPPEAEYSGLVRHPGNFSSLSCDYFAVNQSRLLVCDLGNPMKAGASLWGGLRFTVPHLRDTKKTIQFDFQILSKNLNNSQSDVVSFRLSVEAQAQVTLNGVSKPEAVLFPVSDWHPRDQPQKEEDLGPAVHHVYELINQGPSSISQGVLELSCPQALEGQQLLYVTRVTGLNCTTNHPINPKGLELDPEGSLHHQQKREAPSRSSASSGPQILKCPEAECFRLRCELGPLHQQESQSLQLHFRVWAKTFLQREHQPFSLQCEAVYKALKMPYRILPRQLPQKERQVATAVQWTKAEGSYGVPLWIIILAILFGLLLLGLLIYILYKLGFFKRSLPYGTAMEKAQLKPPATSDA

αvβ1 integrin (human) = αvβ1 integrin (human) (UniProt P06756)
α1 integrin (human) = α1 integrin (human) (UniProt P56199)
Chain of UniProt P56199 (P56199 29-1179): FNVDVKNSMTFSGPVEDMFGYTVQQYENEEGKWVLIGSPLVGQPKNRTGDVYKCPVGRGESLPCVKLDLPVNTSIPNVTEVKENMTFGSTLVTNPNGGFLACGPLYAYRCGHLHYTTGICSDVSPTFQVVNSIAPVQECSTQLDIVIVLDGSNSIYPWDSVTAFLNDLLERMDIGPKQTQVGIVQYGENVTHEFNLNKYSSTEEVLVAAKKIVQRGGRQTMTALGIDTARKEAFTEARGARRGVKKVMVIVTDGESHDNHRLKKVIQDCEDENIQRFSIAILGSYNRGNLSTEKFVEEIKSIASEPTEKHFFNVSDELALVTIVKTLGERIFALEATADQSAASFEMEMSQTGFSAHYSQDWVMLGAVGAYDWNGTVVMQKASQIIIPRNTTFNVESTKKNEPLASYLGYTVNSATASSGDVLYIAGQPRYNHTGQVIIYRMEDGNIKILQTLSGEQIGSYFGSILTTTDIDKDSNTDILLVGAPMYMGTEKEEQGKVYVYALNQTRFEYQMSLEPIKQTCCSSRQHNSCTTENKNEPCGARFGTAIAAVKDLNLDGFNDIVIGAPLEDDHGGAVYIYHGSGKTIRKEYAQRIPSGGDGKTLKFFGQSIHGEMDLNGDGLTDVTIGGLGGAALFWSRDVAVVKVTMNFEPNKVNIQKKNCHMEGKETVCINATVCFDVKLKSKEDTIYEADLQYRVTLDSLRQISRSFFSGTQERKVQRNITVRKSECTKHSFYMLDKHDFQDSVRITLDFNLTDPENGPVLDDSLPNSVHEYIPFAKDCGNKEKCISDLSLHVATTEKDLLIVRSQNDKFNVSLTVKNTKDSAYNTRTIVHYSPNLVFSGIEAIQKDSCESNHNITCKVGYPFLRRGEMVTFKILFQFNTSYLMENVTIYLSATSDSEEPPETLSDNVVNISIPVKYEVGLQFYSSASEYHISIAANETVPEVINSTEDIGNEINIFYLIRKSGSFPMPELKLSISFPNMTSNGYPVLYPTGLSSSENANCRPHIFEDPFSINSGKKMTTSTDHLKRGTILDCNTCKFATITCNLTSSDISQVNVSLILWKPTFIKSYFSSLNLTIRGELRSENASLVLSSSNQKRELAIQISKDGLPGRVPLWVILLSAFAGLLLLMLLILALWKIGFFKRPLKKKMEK

α9 integrin (human) = α9 integrin (human) (UniProt Q13797)
Chain of UniProt Q13797 (Q13797 30-1035): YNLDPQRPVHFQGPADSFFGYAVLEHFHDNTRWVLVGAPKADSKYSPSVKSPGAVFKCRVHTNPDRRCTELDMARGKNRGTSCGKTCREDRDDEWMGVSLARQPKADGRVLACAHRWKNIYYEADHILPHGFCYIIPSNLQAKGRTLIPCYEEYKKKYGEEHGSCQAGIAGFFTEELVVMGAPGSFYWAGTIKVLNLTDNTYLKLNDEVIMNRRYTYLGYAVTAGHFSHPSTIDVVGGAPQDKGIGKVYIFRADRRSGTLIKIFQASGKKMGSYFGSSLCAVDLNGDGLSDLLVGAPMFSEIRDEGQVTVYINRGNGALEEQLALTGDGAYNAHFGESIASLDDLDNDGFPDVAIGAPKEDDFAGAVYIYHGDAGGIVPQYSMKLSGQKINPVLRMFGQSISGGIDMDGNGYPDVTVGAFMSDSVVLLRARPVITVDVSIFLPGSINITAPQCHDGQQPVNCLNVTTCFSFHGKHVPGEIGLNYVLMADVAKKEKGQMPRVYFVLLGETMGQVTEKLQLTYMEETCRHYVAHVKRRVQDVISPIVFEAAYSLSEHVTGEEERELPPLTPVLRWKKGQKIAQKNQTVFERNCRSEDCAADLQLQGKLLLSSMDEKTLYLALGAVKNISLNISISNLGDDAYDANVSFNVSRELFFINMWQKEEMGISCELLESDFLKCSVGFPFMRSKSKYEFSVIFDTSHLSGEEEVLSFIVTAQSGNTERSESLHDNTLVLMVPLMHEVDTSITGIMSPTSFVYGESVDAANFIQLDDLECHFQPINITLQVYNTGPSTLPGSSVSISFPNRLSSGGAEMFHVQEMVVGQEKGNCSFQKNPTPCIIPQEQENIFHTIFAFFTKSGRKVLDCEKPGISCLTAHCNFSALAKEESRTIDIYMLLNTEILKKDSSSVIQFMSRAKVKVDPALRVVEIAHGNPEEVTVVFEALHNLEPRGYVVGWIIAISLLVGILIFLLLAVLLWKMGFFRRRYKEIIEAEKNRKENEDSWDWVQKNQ

Chain of UniProt P05556 (P05556 21-798): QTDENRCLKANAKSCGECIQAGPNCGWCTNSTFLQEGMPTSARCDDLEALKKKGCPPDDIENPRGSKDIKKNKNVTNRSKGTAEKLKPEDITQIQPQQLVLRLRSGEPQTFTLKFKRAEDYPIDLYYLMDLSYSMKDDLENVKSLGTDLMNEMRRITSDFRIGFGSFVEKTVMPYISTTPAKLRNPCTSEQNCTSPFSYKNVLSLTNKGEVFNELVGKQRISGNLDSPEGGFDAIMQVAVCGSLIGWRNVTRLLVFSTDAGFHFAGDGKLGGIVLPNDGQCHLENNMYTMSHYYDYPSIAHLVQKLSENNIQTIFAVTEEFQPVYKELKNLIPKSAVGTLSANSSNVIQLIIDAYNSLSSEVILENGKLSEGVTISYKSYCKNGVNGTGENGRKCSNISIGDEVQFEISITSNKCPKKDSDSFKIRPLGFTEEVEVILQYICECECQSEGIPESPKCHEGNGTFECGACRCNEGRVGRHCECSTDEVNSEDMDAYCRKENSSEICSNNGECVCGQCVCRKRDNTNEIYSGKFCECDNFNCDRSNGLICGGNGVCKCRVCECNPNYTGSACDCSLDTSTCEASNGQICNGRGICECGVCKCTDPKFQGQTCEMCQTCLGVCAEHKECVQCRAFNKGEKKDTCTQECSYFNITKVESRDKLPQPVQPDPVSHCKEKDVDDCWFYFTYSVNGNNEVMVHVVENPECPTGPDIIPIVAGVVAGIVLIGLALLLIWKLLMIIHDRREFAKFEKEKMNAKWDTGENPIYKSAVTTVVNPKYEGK
Chain of UniProt P23229 (P23229 24-1130): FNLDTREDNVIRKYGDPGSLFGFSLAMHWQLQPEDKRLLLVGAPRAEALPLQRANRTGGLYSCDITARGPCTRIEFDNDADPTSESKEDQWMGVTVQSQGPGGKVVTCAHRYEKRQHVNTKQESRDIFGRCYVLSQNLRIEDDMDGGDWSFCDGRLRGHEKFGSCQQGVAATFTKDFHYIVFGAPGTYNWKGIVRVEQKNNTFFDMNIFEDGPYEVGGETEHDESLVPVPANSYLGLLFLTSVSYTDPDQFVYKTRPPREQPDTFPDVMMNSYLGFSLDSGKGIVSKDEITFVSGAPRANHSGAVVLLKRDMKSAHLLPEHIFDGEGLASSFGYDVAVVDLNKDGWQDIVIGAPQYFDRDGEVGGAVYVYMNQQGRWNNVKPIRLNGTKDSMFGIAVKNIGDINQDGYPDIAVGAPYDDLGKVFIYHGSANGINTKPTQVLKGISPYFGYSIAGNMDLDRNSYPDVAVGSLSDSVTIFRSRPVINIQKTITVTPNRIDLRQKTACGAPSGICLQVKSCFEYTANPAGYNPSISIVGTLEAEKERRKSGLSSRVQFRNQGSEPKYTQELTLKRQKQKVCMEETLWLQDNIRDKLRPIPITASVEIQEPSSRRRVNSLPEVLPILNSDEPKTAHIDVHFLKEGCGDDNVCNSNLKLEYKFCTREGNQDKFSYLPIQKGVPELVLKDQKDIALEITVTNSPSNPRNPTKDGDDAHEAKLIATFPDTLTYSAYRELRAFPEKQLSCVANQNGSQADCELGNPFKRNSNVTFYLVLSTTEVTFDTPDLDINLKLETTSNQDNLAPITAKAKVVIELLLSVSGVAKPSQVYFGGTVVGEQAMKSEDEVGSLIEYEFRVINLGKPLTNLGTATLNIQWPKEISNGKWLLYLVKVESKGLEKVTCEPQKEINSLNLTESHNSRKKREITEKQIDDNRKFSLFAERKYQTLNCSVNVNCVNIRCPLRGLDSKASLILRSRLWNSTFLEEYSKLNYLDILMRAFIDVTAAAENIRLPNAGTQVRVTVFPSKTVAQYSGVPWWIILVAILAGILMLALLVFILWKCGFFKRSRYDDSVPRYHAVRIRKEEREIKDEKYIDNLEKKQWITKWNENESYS

- LTP in the presence of Aβ plus antibody, CA1 in vivo (% baseline) [1]: 135%
- LTP in the presence of Aβ plus antibody, dentate gyrus in vitro (% baseline) [1]: 153%
Molecule: 17E6 (antibody)

Molecule: AIIB2 (antibody)
- Maximal inhibition of toxicity (%) (β1 integrin (human)): 100%

Molecule: Gi9 (antibody)
- Maximal inhibition of toxicity (%) (α2 integrin (human)): 100%

Molecule: GoH3 (antibody)
- Maximal inhibition of toxicity (%) (α6 integrin (human)): 40%

Molecule: Laminin (ligand)
- Maximal inhibition of toxicity (%) (α2β1 integrin (human)): 20%

Molecule: P1D6 (antibody)
- Maximal inhibition of toxicity (%) (α5 integrin (human)): 5%

Molecule: SAM1 (antibody)
- Maximal inhibition of toxicity (%) (α5 integrin (human)): 5%

- LTP in the presence of Aβ plus superfibronectin, dentate gyrus in vitro (% baseline) [1]: 147%
Molecule: Superfibronectin (ligand)
- Maximal inhibition of toxicity (%) (αvβ1 integrin (human)): 100%

Molecule: TS2/7 (antibody)
- Maximal inhibition of toxicity (%) (α1 integrin (human)): 5%

Molecule: TS2/16 (activating) (antibody)
- Maximal inhibition of toxicity (%) (β1 integrin (human)): 0%

Molecule: Y9A2 (antibody)
- Maximal inhibition of toxicity (%) (α9 integrin (human)): 0%

Molecule: echistatin (from UniProt P17347 131-179) (peptide)
- LTP in the presence of Aβ plus echistatin, dentate gyrus in vitro (% baseline) [1]: 143%

B1: MAB1998 (antibody, from another filing, V domains shown)
VH: QVQLKESGPGLVAPSQSLSITCTVSGFSLTNYGIHWVRQPPGKGLEWLGVIWARGFTNYNSALMSRLIITKDNSQSQVFLKMNSLQPDDSATYFCARANDGVYYAMDYWGQGTSVTVSS
VL: QFVLTQSPAFLSASPGEKVTMTCSANSSVNYIHWYQQKSGTSPKKWIYDTSKLASGVPVRFSGSGSGTSYSLTISSMETEDAATYYCQQWTTNPLTFGAGTRVELK
- Maximal inhibition of toxicity (%) (α2 integrin (human)): 25%
